In publication PMC9127584 (2022):
“And” between values parts separate entries of the source, which are not always exact repeats. Identical values can stand only once.

T1: ANAC013 254-274 (Arabidopsis thaliana, UniProt F4IED2)
T1 chain: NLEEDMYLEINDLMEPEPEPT

T2: DREB2A 243-272 (Arabidopsis thaliana, UniProt O82132)
T2 chain: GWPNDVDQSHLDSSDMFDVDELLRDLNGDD

T3: ANAC013 (Arabidopsis thaliana (Mouse-ear cress), UniProt F4IED2)
T3 chain: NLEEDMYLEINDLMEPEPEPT

T4: DREB2A (Arabidopsis thaliana (Mouse-ear cress), UniProt O82132)
T4 chain: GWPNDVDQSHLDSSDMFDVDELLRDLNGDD


What was measured:
[1] = biological target: ANAC013 254-274 (Arabidopsis thaliana) (UniProt F4IED2); test: ITC; conditions: cited from earlier work
[2] = biological target: DREB2A 243-272 (Arabidopsis thaliana) (UniProt O82132); test: ITC; conditions: cited from earlier work
ANAC013 254-274 = biological target: T1, ANAC013 254-274; test: ITC
DREB2A 243-272 = biological target: T2, DREB2A 243-272; test: ITC
ANAC013 = biological target: T3, ANAC013; test: ITC 25 C
DREB2A = biological target: T4, DREB2A; test: ITC 25 C

Kd (DREB2A)	Molecule	Kd [2]	Kd (ANAC013)	also measured
110 nM	HsTAF4_TAFH (protein) TSSAATETMENVKKCKNFLSTLIKLASSGKQSTETAANVKELVQNLLDGKIEAEDFTSRLYRELNSSPQPYLVPFLKRSLPALRQLTPDSAAFIQQS			
740 nM	AtTAF4_RST (protein) NPINRNPKQVPFAALLPTLMNQLDKDRALQLRTLYARLKKNEIPKEGFTRHMKDIVGDQMLRMAVSKLQQVNY		1080 nM	

Continued, molecule first:

Molecule	Kd (DREB2A)	Kd [2]	Kd (ANAC013)	also measured
RCD1 499-572 (from UniProt Q8RY59)		16 nM		Kd [1]: 9 nM
RCD1 RST (from UniProt Q8RY59)		16 nM		
AtTAF4 180-254 (protein) NVNPINRNPKQVPFAALLPTLMNQLDKDRALQLRTLYARLKKNEIPKEGFTRHMKDIVGDQMLRMAVSKLQQVNY				Kd (ANAC013 254-274): 1080 nM; Kd (DREB2A 243-272): 740 nM and 1050 nM
AtRCD1_RST (protein) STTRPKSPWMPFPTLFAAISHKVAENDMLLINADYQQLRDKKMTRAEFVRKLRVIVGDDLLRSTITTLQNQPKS	16 nM		9 nM	
